Test results: PMC11516053, “Genomic Amplification of TBC1D31 Promotes Hepatocellular Carcinoma Through Reducing the Rab22A‐Mediated Endolysosomal Trafficking and Degradation of EGFR” (Advanced Science, 2024)

Target: T1, SFB-TBC1D31 (human, UniProt Q96DN5-1 1-1066)
T1 construct: In the SFB pull-down it was left on the streptavidin beads; in the GST pull-down it was eluted with biotin; source: HEK293T, transfected, purified (streptavidin-conjugated beads, eluted with biotin)
T1 sequence (looked up): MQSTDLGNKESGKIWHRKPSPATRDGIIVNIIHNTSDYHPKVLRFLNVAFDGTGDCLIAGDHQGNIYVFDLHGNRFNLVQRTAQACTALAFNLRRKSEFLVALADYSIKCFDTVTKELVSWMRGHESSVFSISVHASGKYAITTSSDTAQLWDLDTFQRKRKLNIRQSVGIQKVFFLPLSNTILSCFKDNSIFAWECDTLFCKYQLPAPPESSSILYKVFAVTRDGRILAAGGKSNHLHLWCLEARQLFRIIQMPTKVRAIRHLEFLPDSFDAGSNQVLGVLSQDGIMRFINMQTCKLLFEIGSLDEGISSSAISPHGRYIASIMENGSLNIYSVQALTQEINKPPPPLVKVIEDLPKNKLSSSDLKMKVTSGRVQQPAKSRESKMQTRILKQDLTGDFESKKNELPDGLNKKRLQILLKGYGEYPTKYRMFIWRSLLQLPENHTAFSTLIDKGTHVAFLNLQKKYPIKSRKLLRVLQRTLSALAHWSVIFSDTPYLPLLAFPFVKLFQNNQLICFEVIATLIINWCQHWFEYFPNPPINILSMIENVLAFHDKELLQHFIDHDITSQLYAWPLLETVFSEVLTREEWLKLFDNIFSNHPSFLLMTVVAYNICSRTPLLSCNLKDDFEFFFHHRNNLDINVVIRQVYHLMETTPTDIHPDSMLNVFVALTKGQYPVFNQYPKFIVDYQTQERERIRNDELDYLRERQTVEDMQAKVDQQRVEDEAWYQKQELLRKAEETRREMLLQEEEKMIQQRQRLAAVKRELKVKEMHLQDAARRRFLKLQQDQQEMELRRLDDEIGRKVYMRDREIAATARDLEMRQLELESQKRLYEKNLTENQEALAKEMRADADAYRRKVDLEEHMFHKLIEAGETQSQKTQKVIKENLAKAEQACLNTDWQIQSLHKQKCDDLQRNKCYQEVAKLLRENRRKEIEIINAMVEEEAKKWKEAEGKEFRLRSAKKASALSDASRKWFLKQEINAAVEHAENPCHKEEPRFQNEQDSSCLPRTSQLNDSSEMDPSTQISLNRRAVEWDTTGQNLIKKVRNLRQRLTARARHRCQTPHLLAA
Assay: pull-down; GST pull-down in vitro: GST-Rab22A on Glutathione-Sepharose incubated with eluted SFB-TBC1D31 in NETN buffer, 3 h, 4 °C; detection by Flag antibody
Conditions: both partners purified

binding result: binds
B1: GST-Rab22A (natural protein, human, UniProt Q9UL26 1-194, looked up)
chain: MALRELKVCLLGDTGVGKSSIVWRFVEDSFDPNINPTIGASFMTKTVQYQNELHKFLIWDTAGQERFRALAPMYYRGSAAAIIVYDITKEETFSTLKNWVKELRQHGPPNIVVAIAGNKCDLIDVREVMERDAKDYADSIHAIFVETSAKNAININELFIEISRRIPSTDANLPSGGKGFKLRRQPSEPKRSCC
notes: On glutathione beads in the GST pull-down; eluted with reduced glutathione for the SFB pull-down; source: E. coli BL21, purified (Glutathione-Sepharose)
